Assay results published in article PMC3671127.

What was measured:
[1] = biological target: HIV-1 integrase, wild type, fluorescently labelled (IN-mTFP1 and IN-mVenus) in virions (HIV-1) (UniProt P12497); test: FRET or BRET; single virus FRET by acceptor photobleaching (TIRF microscopy) on fixed virions with IN-mTFP1 donor and IN-mVenus acceptor; FRET ratio = FD/FDA; virions produced in the presence of raltegravir (5-fold EC50)
[2] = biological target: HIV-1 integrase, wild type, fluorescently labelled (IN-mTFP1 and IN-mVenus) in virions (HIV-1) (UniProt P12497); test: FRET or BRET; single virus FRET by acceptor photobleaching (TIRF microscopy) on fixed virions with IN-mTFP1 donor and IN-mVenus acceptor; FRET ratio = FD/FDA, unity means no FRET; virions produced in the presence of DMSO
[3] = biological target: HIV-1 integrase, wild type, fluorescently labelled (IN-mTFP1 and IN-mVenus) in virions (HIV-1) (UniProt P12497); test: FRET or BRET; single virus FRET by acceptor photobleaching (TIRF microscopy) on fixed virions with IN-mTFP1 donor and IN-mVenus acceptor; FRET ratio = FD/FDA; virions produced in the presence of CX05045 (5-fold EC50)
[4] = biological target: HIV-1 Pol polyprotein with a catalytically dead protease (sPol-PR_(D25N)) (HIV-1 (IIIB)); test: AlphaScreen or HTRF; 33 nM GST-sPol-PR_(D25N) and 33 nM His-MBP-sPol-PR_(D25N) kept constant, CX05045 (raltegravir, DMSO as controls) titrated 1:10 from 100 uM; 25 mM Tris/HCl pH 7.5, 150 mM NaCl, 1 mM dithiothreitol, 1 mM MgCl2, 0.1% BSA, 0.1% Tween 20; overnight at 4°C, then glutathione donor and Ni-chelate acceptor beads 2 h at 23°C
[5] = biological target: HIV-1 integrase A128T (LEDGIN-resistant), fluorescently labelled (IN_(A128T)-mTFP1 and IN_(A128T)-mVenus) in virions (HIV-1); test: FRET or BRET; single virus FRET by acceptor photobleaching (TIRF microscopy) on fixed virions with IN-mTFP1 donor and IN-mVenus acceptor; FRET ratio = FD/FDA, unity means no FRET; virions produced in the presence of DMSO
[6] = biological target: HIV-1 integrase A128T (LEDGIN-resistant), fluorescently labelled (IN_(A128T)-mTFP1 and IN_(A128T)-mVenus) in virions (HIV-1); test: FRET or BRET; single virus FRET by acceptor photobleaching (TIRF microscopy) on fixed virions with IN-mTFP1 donor and IN-mVenus acceptor; FRET ratio = FD/FDA; virions produced in the presence of CX05045 (5-fold EC50)

Question: Which mean FRET ratio (raltegravir) [1] does the source give for “HIV-1 integrase, wild type, fluorescently labelled (IN-mTFP1 and IN-mVenus) in virions (from UniProt P12497 1148-1435) (enzyme)” here?
Answer: 1.22

Question: And the mean FRET ratio (DMSO) [2]?
Answer: 1.25

Question: And the mean FRET ratio (CX05045) [3]?
Answer: 1.43

Question: For “HIV-1 Pol polyprotein with a catalytically dead protease (sPol-PR_(D25N)) (natural protein)”, which EC50 of CX05045 for the enhancement of Pol-Pol multimerization [4] is on record?
Answer: 8.7 nM

Question: For “HIV-1 integrase A128T (LEDGIN-resistant), fluorescently labelled (IN_(A128T)-mTFP1 and IN_(A128T)-mVenus) in virions (enzyme)”, which mean FRET ratio (DMSO) [5] is on record?
Answer: 1.26

Question: And the mean FRET ratio (CX05045) [6]?
Answer: 1.23
